Measurements reported in the domain aggregation screens of Martell et al. (2025).

Experiment: soluble fraction after stress (log2 fold change); higher = more stays soluble; pooled small domains, quantitative proteomics
Details: stress: 75 degC
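Note: 20 min heating vs room temperature control held 20 min.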

Sequence | soluble fraction (log2)
HMRASVTYVVQVNGKLRGKLEVAPDIDPEELKKLALEVENVKHSLQGWTVKKVIVIPGKMVSIAAGK | -1.78
HMRAVEGKRLKRLLRTNLIAIERDQILQYPLRKRPLAIVTRAVRATNPDAVIVNDAGDDVFARALDVLLAS | -1.44
HMRDAKSQLQEALQKSGRLPEYELVSVEGPPHAPVFTYRVRIDGAVVGEGQGASKQAAQQAAAQSALKSG | 0.0311
HMRDDAIQQGREIVERELHRLDLAYTTLTDVLAKLEYEKLDDLYAAVGFGIRSPHSVAAAALQVERDKA | -0.322
HMRDGHEQLQGVLSAIKFHQANFLIGVLDDGTTVKGNMLSPQVGLEYTFRGRRERHPRWGEQFAFMDYRV | -3.31
HMRDIGKNIRYYREKKGYSQEQLAQLLFVTRQTVSNYETSRSRPDVETLVKLAGLLDIDVTDLIYGPR | -2.74
HMRDKSITFSEFVKLLDEGQIQKVTLTGNEILGTQKSGDKFRTYAPPQYEGLGNKLVERSVEVTAKE | 0.378
HMRDLVTYVVQVNGKLRGKLEVSPSTDDNSLKTMALELENVQRALEGLSVKKVIVIPGKMVSIAAG | -0.972
HMRDVVVVPDLSGLTQMEALSKLDAESLNIGEINYGVSEMPEGVIFKQDPVYGTELMKGDTVDIFISGR | -0.423
HMRDYKTHLQEVLQSKGEVNIWYKLIDEKGPDHNKKFVMQVGIDSKILGFGEGKSKKEAEQVAARKALDNI | -0.384
HMREGIQLGDPVRVIRDPLFGKIGAVSGLPSELRAIPTESEVRVLEVRFPDGTTTVVPRANIEVIEG | 0.487
HMREIEVNYAAGDSVRVIDGPLAGFIGVVSSVEPDKNKVNVTVSMFGRETPVELELDQVETLD | 0.111
HMREISSDELHSLFSADQRGDLVINETTRLSIEKLYALHTPEEREAKVNELSGVLPSEAHRQLVHFLDYFD | -1.42
HMREITVEELYELEGIRIVGTIPGISAWVAESGRQMVFLVGQKVKGHDLLEVGESRVVLRKGDSVVNVLL | -1.56
HMREKPRETFQRIAEKVGQTLRKGPVRVQQMDLLFSESREQVMEVLRAMAESGEIRIQDDTLHWNGHT | 0.173
HMRELPKRPEIRYAAGDRVFHKAFGNGLVKQVAQTAGGARVTVDFGEGKGVKTFAGDAPMIKI | 0.391
HMRELSDFEKLLFTTTLERKMINLAMLLTRSNKADSKDLIQDSYLKAIENQVQFNGNNIDAWVITILKNTF | -0.352
HMRENAARNRNVNLDIGETLRVDAWSPERRARVQYRGAAWDVELAPNAPATVGEFRIVEVRGNVLVVTP | -0.604
HMREPIPVPSRPIRAGDLVEIPGTNRPAEVTAVKGDRLVLKAGVLSMTVKNDEVRLIEDDERAAM | 0.505
HMREQAHEVAGKLGYPVMVKASAGGGGKGIRIVRTEDELDQAFEAAQSETKAAFGDDQMYMEKVI | -0.0878
HMRESDQSTVELSLERTIQEALMVNPRTSSVEEFSFEWGTGRVKVSFIVYSVDGEPFTVDSIIE | -2.45
HMREVEAPRDLLAALGERPGALDAWKALSFTHQREYVEAIEDARKPETRERRIANAVKMVAERS | 0.386
HMREVPHGEYEVKIEKLELVESKAGDPMVTVWFKVLAGDYKGSMIFMNQVITKGFQIHIMNEFLR | -0.308
HMREYEKAVDYVRRMISSGSLNVGDRLPTERELSLELDISRNSTREAMRMLENMGIIVSRHGSGNYISGN | -0.682
HMRFDADELQKAYDLFDADENTPFKTIKQAYYALARRHHPDKNGDQEYFKVINNAFQLIQEHRRRRDN | -0.437
HMRFGNHHVYRTLMVLSDQKRKGRKQIADAVGIGEGSMRTIIEYLRGLDMIDIRQTGVKITRHGNAFL | -0.115
HMRGAARRDRAVGERAVSKDTILDATRALLRKGSALEIRAIDIAEESGLSRQTVFQYYPVIRLIFFELSD | -0.00574
HMRGETSYANDIIKRLKQANLIVVEGTLYPLLNRLKKDGLLHYEWRESQQGPPRKYYGLTEEGEA | -0.273

Sequence | soluble fraction (log2)
HMRGFGEVGQLPSGRYRARYTGPDGGRHSAPITFVARIDAEGWLVDQERMISRGEWEPPARQ | -0.238
HMRGFGYVRRLPSKRYQASYAGPDLQRHVAPTTFTTKADAESWLGAERKVVESGSWRPPAVREAEARLS | 0.462
HMRGLIEPLSQRELEVLMLMARGQSNAHIADQLNISENTIKWHGRNIFGKLGVSNRTEAVITSQEMGMLAT | -0.727
HMRGRFGNAAPARNLGDHPQGGAINVKAGRYGPYVSWGKVNATLPKDSDPEKVTLEEAVALIAAKQSGQG | -0.111
HMRGVDRPLTLPRHWRRNAGRLVKVTLANGSAVTGRVLDPGEERVTLEVSGERHEVAYADVKKALVQVEF | -2.07
HMRHLSVPNRQVEGALDHIRSQGWLAEGMRVFASEDGSARLIPLGPGAPLEMLEPLAKFDVISHEGKPY | -0.149
HMRHSLAAALTELRRLAALDLGDFFRFEYVSHTDSLGGKQQAYTEGIRVSFGVYLGVNKKDRLNVDPVV | -3.42
HMRHTRQRQAVLDALVRSGQALSPQDLLGQAKSAVPSLNLSTVYRQIKGLQDAGQIVRVELPGQPPRFEM | -0.0693
HMRIAQYRQIENDLLEQINLGYYKKGDLIPTELELSATYHVSRVTVRKATDNLVAKGILQRVAGVGTFVSR | -3.14
HMRIATVTPIEEDQASDRVVAVYNDIKSTKQIDFIPNFWKVIAVNPDLLEQVWGQLKTLMHPEEVG | -0.996
HMRIEDTMDYINKIKEKLKNNGGVITSKEFTRSNIPTIYLTRMVETGELIRIDRGIYINSSG | -0.781
HMRIEYYDDEELDRYIGTPASGYREAAVEEFREILLTLDADDVPGWVRSLQLRGIEFPESLRPELYL | -0.568
HMRIFDDNMIFPTEAEISAALKRLVMDLPKVGFLQGHGERAVDNVGERAYSMFTHANNFRYALINQGFVT | -0.029
HMRIHKQLGDRIRNLRLSSGMNQEELAFKSGISAAHLGQIERGLKSPTISTIQKIAKALNVTLPILF | -0.631
HMRININNASARQIADALPGVGLKTARDIKDFQTTLSGERYTRLDQLHSIKRVDWDEIFKADLVRV | -0.0802
HMRISMRDQVYEIIKNRILSREYSLGEPINIVHLSKELGISNTPIREALSQLETERLITINSNQKYHVT | -0.0513
HMRKDEFLQTLRRALNGNVPPRVVEENVRYYDGYISDEVRKGRSEEEVIEEIGDPRLIARTIEDTT | 0.105
HMRKDRKVLMERGRHIFNDLLEKEGIVATNQLMTKLLASHHLRNRDELYLMLANDDISLSSKEIKDLS | -0.409
HMRKEDYLPIGSVINMDDRKFRVDSVDFDKDKVSLQDMALADARMPIFWEEPLTVVRELYEQQDE | 0.135
HMRKEPSYASDIITRLKEADLIVVEGTLYPLLTRLKKDGLLSYEWRESTQGPPRKYYALTLDGET | -0.47
HMRKIGDVLRLHAGGLSKRRIAVSLNIGRTAVGDYISRARRAGLGWPLPEDLSEEALERLLFPPP | -3.08
HMRKIVEGVLTKKEGKWYLLTDIETYKISDASAEYHKAELNDRASALIPAQNPKVPFASLEKVFN | -1.01
HMRKLHFVMSEIYEDHPWIGSKLQDVFLPKDIRVVLVERDSKQFMPNGQTLFELGDRLTLSALHYDPA | -2.8
HMRKLTDRQRQILDLIKTIIAETGAPPTRAEISTALGFKSANAAQEHLQALAQKGMIDLVSGASRGIRLRG | -0.99
HMRKMELTEAAEKLIEEPDVVSAYRNMQQIFQQWREIGPVPREQRDEVWSHFKDLMTQVNRRHQAHFEN | 0.113
HMRKPLDQSWVPDDDAMKILTNSGIEKEFIKNEIPEFILYWSDKGEISDSWNTKFISQIRRQWAKNQ | -0.0241
HMRKSAVSSTLTSIEGIGATRAKALLKHFKTVAAVSEADLKELEDAPGMTRPSALRVYEYFHGK | -0.342
